Results: the DeepSol protein solubility set

Test: soluble on expression in E. coli; label from the status in PepcDB or PDB records

| Sequence | soluble on expression in E. coli |
| --- | --- |
| MGSDKIHHHHHHMAEWAGGQGTQEQAVDKGPVTTDRPRPDRISPMNTARRLLRYLGHQRLPHVVVQIGCEILGAQRGALYLLDQNQEVTLIAQYPDDKDVQVPDDLDEARLSWHTLHDFLPQLVDCAHDHEARFHYCSGGDCWLTLSIPLQWEGQNIAVVQLSYKPDVTIDQTSMLGLVYEYAELAALTLVQHWRCIHPAHSSGTQAVPPSSLTNDYSFSSGVSLALAVSEAERARIARDLHDGARSAILGVQLHLEALRLACMQGDSLAIQDHLARGRAALDAIEQELSHIVRDLYPPQVGEADFPTVLVNLSERWSAATRIPVEYAFAPNIPVLETAQVIALYRIVQEALANCNRHAQASRVTISLACADDTLLLTVADNGRGGANLRGGGIGLLSMAQRAHAIGASFHIDSPPDQGTRIEVKLPLRRREPDVHVCSGDCHEGADE | not soluble |
| MVELFGAVLLLFGLSDLLFRFLGLGAYAHGSRREPKVALTFDDGPSERTEALLALLARHGVKATFFLTGEKARARPDLVEAIKRAGHQVEDHGEWHRPLWLFLPWVEWRHMAQNPGRYYRPPYGLHTPFTRLFARLLGKRVVLWDLESKDWLNLPPEELAERLLFYLRPGSIVLFHDGPERTLRLLGAGPAGDAPPGVPAHHPGRPRPFAPHPEARPHPGPPGV | soluble |
| MGSDKIHHHHHHMRGIVLFPIINCSGAMVEITSTEMTPPVNDSHEFIPMRGIRNRHLQTMLPRLIRRKVKFNAHWQRLELPDGDFVDLAWSEDPQQAKYKPRLVVFHGLEGSLNSPYAHGLIEAAQKRGWLGVVMHFRGCSGEPNRLNRIYHSGETEDGAWFLRWLQREFGAVPTAAVGYSLGGNMLACLLAKEGRDIPIEAAVIVSAPFVLEACSYHMDKGFSRVYQRYLLNLLKANASRKLAAYPGSLPVNLAQLKSMRRIREFDDLITAKIHGFADAIDYYRQCSAMPLLNQIAKPTLIIHAKDDPFMDHHVIPKAEDLPPQVEYQLTEHGGHVGFIGGTPLRPEMWLERRIPDWLTTYLEASS | not soluble |
| MGSDKIHHHHHHMLANQNVRARVQNHQLFSSLNEAQLAKIFATASLLHIKPEQMLFHQGELASRFYFVLAGTLQLFRTNVQGQMKVIEVVRSGCTFAEALMFNKQTRFPVSAQSVSECALVSFDSETYLQLLKHNPDACIAIMADLSVRIRKHINEVEMVSLQNAQHRLLLFLLRKMTVVGDNQGEITLDIPKRLLASRLSIQPETFSRLIKKMSQTGLIAESHGVIRIPDVALLYASTDISITQPTFNQQGPSSAIPLVCN | not soluble |
| MGHHHHHHSHMAGAGVPGEATGRGAGGRRRKRPLQRGKPPYSYIALIAMAIAHAPERRLTLGGIYKFITERFPFYRDNPKKWQNSIRHNLTLNDCFLKIPREAGRPGKGNYWALDPNAEDMFESGSFLRRRKRFKRSDLST | soluble |
| MNTQTGTGTSEVSKKLKAAIRAKLEELGVYVDDELPDYIMVMIANKKEKVQMKDDLNLFIGKSTAKFVDWLFDLFDRLQNASNKQGETSKKEEDKRKELEATAAAKEHEEKRRKEKEEHEKELQKEKEREKERQRERDREKRAEEEKRREEKRKEIQRSKRRRTRSRSNTYSDEEEHVRARGEKHDRHHHKDHRRGRSHERKIITSTIVRQASASPDKKLHSTVTVKRNIRPTGDQNIKGRGTMFLRAMNEASVSAGYGSSSKRSETHHEDDMSDVEALPSKPASTKSPKKSIRDRMSRISKTSEPPIEEDDAVVLEDFAQTGGGPQMILKLSGGREAIKKTRIQDRIVVDDGLRRGLLKRKIETASGASAGAATSEEPKSKHDRIIFDITPSRDSTPTDDSPTMQKWNGQIEIGDDSEESEDDEEAEIDAFVAEARGIARRESFRDEEDELPPTHQLSGGPYAYHHSTAAPTYIPTPLSVLSEQQNQMGGGAAKEDHHVKERCIFWPKCTKGDTCAFMHPTTNCKNFPNCTFGIRCLFIHPPCRFDRFCTKKHCPFTHHGTGGQQPGGAQLTSEFKNPLTSSRMLTVPSPFIAATAAAVEELPKPAARGALGSLAEKLAASIKKKPAPGAESEKKEEKSDENESKAEEPKAEVAPVQPKPLPDIAPLHSMVLCRYAGACRNPICHFKHPKECRFGANCRNPSCYFYHKPAGAAPTPVAAPIAAESAGAAKYKWTSATAN | not soluble |
| MNQQKSLTLIVALTTSYGIGRSNSLPWKLKKEISYFKRVTSFVPTFDSFESMNVVLMGRKTWESIPLQFRPLKGRINVVITRNESLDLGNGIHSAKSLDHALELLYRTYGSESSVQINRIFVIGGAQLYKAAMDHPKLDRIMATIIYKDIHCDVFFPLKFRDKEWSSVWKKEKHSDLESWVGTKVPHGKINEDGFDYEFEMWTRDL | soluble |
| MGSDKIHHHHHHAQKGEKTLTVEVSNEWTQNKTDEPIVIDLNNLKAGFNIKSATVWEGNKEIPSQLDDLNGDARADELAFLIDMPAKSNKSFRIILSSEKSEKNYPARTYAQMKAYGHNNKFANITGFSAAGTENVYSFVYHHGPAIESELVAYRIYFNEKQTVDPYSKVNKRLEIKETCFYPTKAQRANGYGDDALRVYNSGGVGALKGWNGTEATHIKPVVNRTERVLASGPVRAIVEAEVIGWEYQGNDLNMINRYTIYGGHRDMKVDVLFDRPLKQEVFAAGVQILKEGGHMSDHKGLTGSWGTDWPVTDTIGYVKETTGMGTFIPKYIGKEVQDGSNYLYTLQAPGQQHFHYYVTFTSKKESFGFKDMKDWFNYLPQWRKELEHPCKITIK | not soluble |
| MGSDKIHHHHHHMLLLEVKNVSKSYGDTEVLKNVSFELNEGDVMGVLGRSGAGKSVLLHMLRGMEGYEPTSGQIIYHVAYCPHCENVEAPSQVGKKCECETEYVAKSVDFWNNNEITYALKKKIAIMLQRTFALYGEKTVAENIMEALTAAGYEGKDATEWALNLIKMVKLEHRVAHISRDLSGGEKQRVVLARQIAKNPVIFLADEPTGTLDPKTAKFVHNALTEAVIKHNIAMVITSHWPEVIEELCQKAIWLDKGEMRLVGESKHVVEEFMKTVTSMKEFEKVEVKDELLKLENVEKRYVSVDRGIVKAVDGIDVSINEKEIFGLVGVSGAGKTTLSKIIAAVIPPSKGNYEFRLADEWVDMTKVGPLYRGRAKRYIGMLFQEYSLYPHRTILYNLTESIGLEMPGEFAKMKAEHTLVSVGFTEEEAENMLEKHPSELSVGEKHRVALAQVLIREPHLILLDEPTGTMDPITRNQVAESIQKSRSELDQTYVIVSHDMDFVLNVCDRAALVRGGKIIKTGKPDEIVKILSEEEKDEMIGH | not soluble |
| MGSDKIHHHHHHMGKLVVQGGAVLEGEVEISGSKNAALPIMAAAILCDEEVILKNVPRLQDVFVMIDILRSIGFRVEFEENELKIKRENDISQEVPYELVRKMRASFNVLGPIAVRTGRAKVALPGGCSIGVRPVDFHLEGLKKMGFSIKVEHGFVEACFERRIDYVTITLPFPSVGATEHLMTTAALLKGARVVIENAAMEPEIVDLQNFINRMGGHIEGAGTSRIVIEGVEKMQGVEYSIIPDRIEAGTYLVAIAASRGKGLVKNVNPDHLTNFFEKLEETGAKLKVLGNEVEIEMRERPKAVDVTTNPYPGFPTDLQPQMMAYLSTASGVSVITENVFKTRFLHVDELKRMGADIEVSGNVAIVKGVEKLSGAPVEGTDLRATAALLIAGIIADGVTEISNVEHIFRGYEDVIDKFSELGAKIEYVEKEN | not soluble |
| MMNSTNKLSVIIPLYNAGDDFRTCMESLITQTWTALEIIIINDGSTDNSVEIAKYYAENYPHVRLLHQANAGASVARNRGIEVATGKYVAFVDADDEVYPTMYETLMTMALEDDLDVAQCNADWCFRETGETWQSIPTDRLRSTGVLTGPDWLRMGLSSRRWTHVVWMGVYRRDVIVKNNIKFIAGLHHQDIVWTTEFMFNALRARYTEQSLYKYYLHNTSVSRLHRQGNKNLNYQRHYIKITRLLEKLNRNYADKIMIYPEFHQQITYEALRVCHAVRKEPDILTRQRMIAEIFTSGMYKRLITNVRSVKVGYQALLWSFRLWQWRDKTRSHHRITRSAFNLRLEHHHHHH | not soluble |
| MEIDKEILKRCKKYDRASFSQLFHLYEKYLYNLCYGYTQNTSDAMDLVQEIYIKVFKNIKNFDENLPFHPWVRKISVNTCLNFKRDNRGNVMSLNSKYYDSEFEEEDRLAEDYNMEQEVVNRINNEVVKESIKKLTYDYRMVIMLRYYEDLSYDEIASVLDMPIGTVKTKIYRAKNVLKKSLEKKLEVKK | not soluble |
